Laboratory results from publication PMC4451072, “A Linear Epitope in the N-Terminal Domain of CCR5 and Its Interaction with Antibody” (PLoS ONE, 2015).
Entries after “also recorded” stand apart in the source; their conditions may differ. Where two headings read alike, the source gives them in different places.

Tests used:
[1] = test system: hCCR5_1–31; experiment: Epitope mapping with truncated peptides by competitive ELISA; format: binding, human
Text: (§1) The peptide encoding the N-terminal extracellular domain of human CCR5 ([…]-biotin, hCCR5_1–31) was synthesised by the Peptide Synthesis Laboratory, Cancer ResearchUK. The same peptide without the C-terminal cysteine biotin was synthesised by PeptideSynthetics (Fareham PO15 6DP). An analogue of the peptide with sulphated tyrosines at position 10 and 14 was synthesised as described previously and given as a gift by Prof. Fred Naider (City University of New York). The panel of truncated peptides used for epitope mapping (See Results, Subsection “Defining a linear epitope in the N-terminal domain of CCR5”) was synthesised by Sigma (Pepscreen). The chimeric peptide used for immunisation ([…]) was synthesised by the peptide synthesis facility at the University of Ghent. All peptides were >80% pure by HPLC and mass spectroscopy.
The pepscreen panel of CCR5 truncated peptides was screened by competitive ELISA. Antibody supernatant (typically diluted 1 in 1000 or 1 in 4000) was added to N-terminal domain peptide coated ELISA plates in the presence or absence of 1 μg/well of one of the competing peptides. The antibody peptide mixture was incubated overnight, washed and then bound antibody measured as described above.

[2] = test system: HIV; conditions: cited from earlier work
[3] = test system: untransfected controls (CHO cells); experiment: Flow cytometry binding of antibodies to untransfected controls; parameters: species or system Chinese hamster; conditions: normalized to % maximum binding for each antibody
Text: (§2) Chinese hamster ovary cells were transfected by electroporation with vectors expressing human or mouse CCR5 in an expression vector containing a neomycin resistance gene (Genecopoeia, #EX-Z0659-M02 and #EX-Mm01826-M02 respectively). G418 resistant cells were cloned by limit dilution and receptor expressing cells were identified by flow cytometry using RoAb13 anti-CCR5 and Rabbit anti-mouse FITC for human CCR5, and PE anti-Mouse CD195 (CCR5) (clone HM-CCR5, Insight Biotechnology) for mouse CCR5.
(§3) CHO cell transfectants (5 × 10^4) were incubated in 10% goat serum (Sigma) and 0.1% sodium azide for 30 min at 4°C. Purified antibodies or mouse sera at various dilutions were added, and incubated for 2–3 h at 4°C. Cells were washed and bound antibody detected using […] FITC or APC conjugates (R&D Systems). The number of bound antibody molecules was quantified in some experiments using Quikfit calibration beads containing known numbers of bound mouse IgG molecules as per manufacturers instructions (DAKO, #K0078).

[4] = test system: hCCR5_1–31 N-terminal domain peptide; experiment: Affinity of RoAb13 for hCCR5_1–31 peptide by competitive (two-stage) ELISA; format: binding, human; conditions: abstract value
Text: as §1
(§4) 96 well ELISA plates (Nunc) were coated with peptide conjugates (10 μg/ml unless otherwise stated) in coating buffer (0.1 M sodium bicarbonate, pH 8.5), overnight at 4°C. All wells were washed (washing buffer PBS 0.1% Tween-20) and blocked by addition of 2% low fat milk (Tesco) in PBS for at least 1 h at room temperature. […] Unconjugated avidin was used as control coating. […] Bound antibody was detected using alkaline phosphatase coupled rabbit anti-mouse IgG or IgGFab (Sigma) antibody (1:2000 dilution) and substrate (PNPP FAST, Sigma). […]

[5] = test system: cell surface CCR5 (expressed on CCR5 transfectants); experiment: Affinity of RoAb13 for cell surface CCR5 by flow cytometry (Scatchard plot); format: binding, human; conditions: abstract value, CCR5-transfected cells
Text: as §2, §3

[6] = test system: human CCR5 (CHO cell transfectants); experiment: Flow cytometry binding of antibodies to CCR5-transfected CHO cells; conditions: indirect immunofluorescence
Text: as §2, §3

[7] = test system: hCCR5_1–31; experiment: ELISA binding of antibodies to the N-terminal CCR5 peptide; parameters: species or system human; conditions: peptide coupled to avidin, OD 405 nm
Text: as §1, §4

[8] = test system: human peripheral blood leukocytes; experiment: Transwell migration assay, peripheral blood leukocytes; format: cell-based; conditions: responses to individual chemokines or inflammatory macrophage conditioned media
Experimental: (§5) Peripheral blood mononuclear cells and monocyte derived macrophages were prepared from peripheral blood as previously described. The study was approved by the joint University College London / University College London Hospitals NHS Trust Human Research Ethics Committee and written informed consent was obtained from all participants. […] Conditioned media from these cultures were then centrifuged at 10,000g for 5 minutes and stored at -80°C. Polycarbonate transwell inserts (Corning No. 3421, with […] and 6.5 mm diameter) were placed over 500 μL conditioned media or control media or media containing purified chemokines in 24-well plates. […] of freshly isolated PBMC (5x10^6 cells /mL) were loaded into the upper chamber of the transwell, and incubated for 3 hours at 37°C. Transwells were then lifted out of the lower chamber and the contents of the upper chamber were carefully aspirated. Each transwell filter was subsequently tilted to rinse the under surface twice with 200 μL 0.25% Trypsin-EDTA (Gibco) that was allowed to drain into the well (lower chamber). […] The lower chamber cell suspension was collected and fixed with 1% paraformaldehyde in phosphate buffered saline (PBS). […] 10 000 beads were counted to standardised cell count quantitation in each sample and transmigration of cells in the lower chamber was expressed as the proportion of the input.

[9] = test system: monocytes; experiment: Transwell migration assay, monocytes; format: cell-based, human; conditions: for migration of monocytes to macrophage conditioned medium: 3 h at 37°C, conditioned medium from resting and activated (LPS) macrophages
Experimental: Peripheral blood mononuclear cells and monocyte derived macrophages were prepared from peripheral blood as previously described. The study was approved by the joint University College London / University College London Hospitals NHS Trust Human Research Ethics Committee and written informed consent was obtained from all participants. […] Conditioned media from these cultures were then centrifuged at 10,000g for 5 minutes and stored at -80°C. Polycarbonate transwell inserts (Corning No. 3421, with […] and 6.5 mm diameter) were placed over 500 μL conditioned media or control media or media containing purified chemokines in 24-well plates. […] of freshly isolated PBMC (5x10^6 cells /mL) were loaded into the upper chamber of the transwell, and incubated for 3 hours at 37°C. Transwells were then lifted out of the lower chamber and the contents of the upper chamber were carefully aspirated. Each transwell filter was subsequently tilted to rinse the under surface twice with 200 μL 0.25% Trypsin-EDTA (Gibco) that was allowed to drain into the well (lower chamber). […] The lower chamber cell suspension was collected and fixed with 1% paraformaldehyde in phosphate buffered saline (PBS). […] A FACScalibur flow cytometer (Becton Dickinson) was used with FlowJo (version 9.4.3) analysis software. 10 000 beads were counted to standardised cell count quantitation in each sample and transmigration of cells in the lower chamber was expressed as the proportion of the input.

[10] = test system: CCR5 on human peripheral blood subpopulations; experiment: Expression of CCR5 on human peripheral blood subsets as detected by RoAb13; format: binding; conditions: S2 Fig
Text: Peripheral blood subpopulations were stained using purified RoAb13 Fab fragment directly conjugated with […] as per manufacturer’s instructions.

[11] = test system: CHO-CCR5 transfected cells; conditions: ref [19]; cited from earlier work
Text: The clear cut inhibitory effects of the antibody even ...

[12] = test system: mouse CCR5; experiment: Flow cytometry binding of antibodies to CHO cells transfected with mouse CCR5; conditions: normalized to % maximum binding for each antibody
Text: as §2, §3

[13] = test system: hCCR5_1–31 analogue with sulphated tyrosines at position 10 and 14; experiment: ELISA binding of RoAb13 to sulphated N-terminal CCR5 peptide; parameters: species or system human
Text: as §1, §4

[14] = test system: lymphocytes; experiment: Transwell migration assay, lymphocytes; format: cell-based, human; conditions: 3 h, conditioned medium from resting and activated macrophages
Experimental: as §5

peptide spanning the whole of 5–25: peptide of the pepscreen panel spanning CCR5 residues 5–25 (VSSPIYDINYYTSEPCQKINV; UniProt P51681 5-25, looked up, fragment)
inhibition of R&D1801 binding to hCCR5_1–31 ([1]; competing peptide 1 μg/well, overnight, competitive ELISA): completely blocked

B1: RoAb13: mouse monoclonal anti-CCR5 antibody from hybridoma line number PZ3733 (Roche Palo Alto); EMBL LN832627 and LN832628 (antibody, V domains shown)
VH: EVQLQESGGGLVKPGGSLKLSCAASGFTFSTYAMSWVRQTPEKRLEWVASISTGDNTYYTDSVRGRFTISRDNARNILYLQMSSLRSEDTAMYFCTRGRGDRGDLFGYWGQGTLVTVSS
VL: DIVMSQSPSSLAVSVGEKVTMSCKSSQSLLYRGNQMNYLAWYQQKPGQSPKLLIYWASTRESGVPDRFTGSGSGTEFTLTISSVKAEDLTVYYCQQYYTYPRTFGGGTKLEIK
HIV blocking ([2]; previously shown): block HIV infection; also recorded: potent HIV blocking activity
inhibition of HIV infection ([2]; ref [19],[32]): potent inhibitor of HIV infection
inhibition of HIV infection ([2]; single round and spreading infection assays, ref [19]): inhibit HIV infection, in both single round and spreading infection assays
binding to untransfected controls [3]: less than 5 % of maximum binding
affinity for peptide [4]: 1.2e+07 M⁻¹
affinity for cells [5]: 6e+08 M⁻¹
binding to CCR5-expressing transfectants [6]: bound strongly to CCR5-expressing transfectants; also recorded: quite heterogenous
recognition of the synthetic N-terminal peptide [7]: recognised the synthetic peptide; also recorded: bound to both linear peptide and native forms of the epitope
chemokine or conditioned media induced leukocyte migration [8]: effectively blocked chemokine induced migration of human peripheral blood leukocytes
migration in response to CCR5 binding chemokines [9]: blocks migration of monocytes in response to CCR5 binding chemokines; also recorded: ability to block chemokine induced monocyte migration; also recorded: inhibits migration induced by chemokines which bind CCR5
migration of monocytes to macrophage conditioned medium [9]: blocks migration of monocytes; also recorded: inhibits monocyte chemotaxis
migration in response to CCL2 ([9]; CCL2, S3 Fig): blocked migration
migration in response to CCL3 ([9]; CCL3, S3 Fig): blocked migration
migration in response to CCL4 ([9]; CCL4, S3 Fig): blocked migration
migration in response to CXCL12 ([9]; CXCL12 (acts via CXCR4), S3 Fig): failed to block migration
detection of CCR5 on CD4, CD8 and NK cells [10]: detected CCR5 on a subpopulation of human peripheral CD4, CD8 and NK cells
detection of CCR5 on monocytes and B cells [10]: low levels of CCR5 expression
core epitope recognised ([1]; competitive ELISA with truncated peptides, defined by inhibition of binding by more than 50%): between aa8 (proline) and 13(asparagine)
block of binding of CCL3, 4 and CCL5 [11]: only partial ability to block binding of CCL3, 4 and CCL5
block of chemokine induced calcium flux [11]: only partial ability
binding to CHO cells transfected with mouse CCR5 [12]: less than 5 % of maximum binding
binding to sulphated vs non-sulphated peptide ([13]; peptide sulphated at tyrosines 10 and 14): bound more strongly (heteroclytic binding) to sulphated than non-sulphated forms of the peptide; also recorded: binding to peptide was significantly enhanced by the sulphation of target tyrosines
binding to sulphated vs non-sulphated peptide ([13]; peptide sulphated at tyrosines 10 and 14, listed as RoAb 13): binding to the peptide is enhanced by sulfation of tyrosines at positions 10 and 14

B2: RoAb13 Fab fragment: Fab fragment of RoAb13 produced by papain digestion; PDB 4S2S (antibody, V domains shown)
VH: EVQLQESGGGLVKPGGSLKLSCAASGFTFSTYAMSWVRQTPEKRLEWVASISTGDNTYYTDSVRGRFTISRDNARNILYLQMSSLRSEDTAMYFCTRGRGDRGDLFGYWGQGTLVTVSS
VL: DIVMSQSPSSLAVSVGEKVTMSCKSSQSLLYRGNQMNYLAWYQQKPGQSPKLLIYWASTRESGVPDRFTGSGSGTEFTLTISSVKAEDLTVYYCQQYYTYPRTFGGGTKLEIK
migration of monocytes to macrophage conditioned medium [9]: significant difference from control (T test, p<0.05)
migration of monocytes to macrophage conditioned medium ([9]; listed as Fab fragment of RoAb13): significantly inhibited the migration of monocytes
migration of lymphocytes to macrophage conditioned medium [14]: not lymphocytes
